{"source": "patent US20160200782A1", "about": "(MOERAE MATRIX, published 2016); further: test concentration or dose not given here", "experiment_in_all_cases": "cell-based or functional assay", "key": {"[1]": {"biological_target": "JNK1α1(h) (human, UniProt P45983-2 1-384)"}, "[2]": {"biological_target": "CaMKIIγ(h) (human, UniProt Q13555 1-558, limits assumed)"}, "[3]": {"biological_target": "PAK3(h) (human, UniProt O75914 1-559, limits assumed)"}, "[4]": {"biological_target": "T1, EphB4(h) (human, UniProt P54760 561-987, limits assumed)", "T1 sequence (looked up)": "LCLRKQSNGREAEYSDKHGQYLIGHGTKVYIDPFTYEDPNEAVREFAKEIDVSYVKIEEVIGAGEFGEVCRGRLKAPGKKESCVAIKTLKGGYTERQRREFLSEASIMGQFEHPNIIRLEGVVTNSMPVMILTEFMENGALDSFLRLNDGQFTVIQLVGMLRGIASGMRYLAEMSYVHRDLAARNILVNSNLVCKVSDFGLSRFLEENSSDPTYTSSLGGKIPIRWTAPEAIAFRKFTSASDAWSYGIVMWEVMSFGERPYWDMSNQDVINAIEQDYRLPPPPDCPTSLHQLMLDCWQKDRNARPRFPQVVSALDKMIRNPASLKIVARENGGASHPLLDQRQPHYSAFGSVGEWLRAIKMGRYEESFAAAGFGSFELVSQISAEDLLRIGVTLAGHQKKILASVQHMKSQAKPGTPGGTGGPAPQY"}, "[5]": {"biological_target": "SIK(h) (human, UniProt P57059 1-783, limits assumed)"}, "[6]": {"biological_target": "MST3(h) (human, UniProt Q9Y6E0 1-443, limits assumed)"}, "[7]": {"biological_target": "T2, Flt3(D835Y)(h) (human, UniProt P36888 564-993, limits assumed)", "T2 sequence (looked up)": "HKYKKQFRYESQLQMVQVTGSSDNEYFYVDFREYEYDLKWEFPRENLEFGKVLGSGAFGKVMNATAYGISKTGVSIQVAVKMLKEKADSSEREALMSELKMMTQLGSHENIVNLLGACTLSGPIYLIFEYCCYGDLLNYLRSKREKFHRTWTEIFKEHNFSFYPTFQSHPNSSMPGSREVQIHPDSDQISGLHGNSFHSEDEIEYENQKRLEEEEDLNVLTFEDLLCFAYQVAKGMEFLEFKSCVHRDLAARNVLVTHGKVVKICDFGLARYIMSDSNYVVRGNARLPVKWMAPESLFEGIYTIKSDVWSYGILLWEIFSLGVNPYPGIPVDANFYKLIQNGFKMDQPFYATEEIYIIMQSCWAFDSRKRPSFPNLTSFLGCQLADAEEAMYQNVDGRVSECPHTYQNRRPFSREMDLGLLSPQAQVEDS"}, "[8]": {"biological_target": "EGFR(h) (human, UniProt P00533 696-1210, limits assumed)"}, "[9]": {"biological_target": "Pim-3(h) (human, UniProt Q86V86 1-326)"}, "[10]": {"biological_target": "Pim-2(h) (human, UniProt Q9P1W9 1-311)"}, "[11]": {"biological_target": "ROCK-I(h) (human, UniProt Q13464 17-535)"}, "[12]": {"biological_target": "cSRC(h) (human, UniProt P12931 1-536, limits assumed)"}, "[13]": {"biological_target": "HIPK2(h) (human, UniProt Q9H2X6 165-564, limits assumed)"}, "[14]": {"biological_target": "CK2(h) (human)"}, "[15]": {"biological_target": "Src(T341M)(h) (human, UniProt P12931 1-536, limits assumed)"}, "[16]": {"biological_target": "WNK3(h) (human, UniProt Q9BYP7 1-434, limits assumed)"}, "[17]": {"biological_target": "T3, MuSK(h) (human, UniProt O15146 517-869, limits assumed)", "T3 sequence (looked up)": "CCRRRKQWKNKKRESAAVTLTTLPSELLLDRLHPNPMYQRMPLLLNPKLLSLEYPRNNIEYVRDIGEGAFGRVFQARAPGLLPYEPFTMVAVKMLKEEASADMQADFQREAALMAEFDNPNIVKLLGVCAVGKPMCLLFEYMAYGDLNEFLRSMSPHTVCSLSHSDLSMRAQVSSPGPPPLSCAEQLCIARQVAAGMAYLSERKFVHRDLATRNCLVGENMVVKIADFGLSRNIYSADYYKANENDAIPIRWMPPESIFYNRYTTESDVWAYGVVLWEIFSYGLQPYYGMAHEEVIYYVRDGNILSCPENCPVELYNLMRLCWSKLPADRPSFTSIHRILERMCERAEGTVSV"}, "[18]": {"biological_target": "AMPKa2(h) (human, UniProt P54646 1-552, limits assumed)"}, "[19]": {"biological_target": "T4, MST2(h) (human, UniProt Q13188 1-491, limits assumed)", "T4 sequence (looked up)": "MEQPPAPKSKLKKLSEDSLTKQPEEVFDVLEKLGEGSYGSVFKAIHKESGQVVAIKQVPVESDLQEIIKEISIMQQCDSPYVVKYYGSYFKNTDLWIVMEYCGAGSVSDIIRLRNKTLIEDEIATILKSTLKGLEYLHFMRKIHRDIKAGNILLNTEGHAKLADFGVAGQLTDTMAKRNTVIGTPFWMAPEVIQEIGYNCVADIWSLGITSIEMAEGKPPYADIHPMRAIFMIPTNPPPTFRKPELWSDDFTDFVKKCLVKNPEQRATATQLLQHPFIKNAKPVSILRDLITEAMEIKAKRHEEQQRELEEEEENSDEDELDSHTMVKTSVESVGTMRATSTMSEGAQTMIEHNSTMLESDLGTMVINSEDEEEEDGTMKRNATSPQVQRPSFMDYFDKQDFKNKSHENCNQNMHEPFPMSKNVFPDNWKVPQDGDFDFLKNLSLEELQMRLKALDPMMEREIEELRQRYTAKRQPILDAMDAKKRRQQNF"}, "[20]": {"biological_target": "CDK1/cyclinB(h) (human, UniProt P06493 1-297; P06493 1-297)"}}, "data": [{"binder": "FAKLAARLYRKALARQLGVAA", "note": "[MMI-0300]", "values": [{"measurement": "% activity", "setting": "[1]", "value": 97, "unit": "%"}, {"measurement": "% activity", "setting": "[2]", "value": 5, "unit": "%"}, {"measurement": "% activity", "setting": "[3]", "value": 140, "unit": "%"}, {"measurement": "% activity", "setting": "[4]", "value": 44, "unit": "%"}, {"measurement": "% activity", "setting": "[5]", "value": 66, "unit": "%"}, {"measurement": "% activity", "setting": "[6]", "value": 45, "unit": "%"}, {"measurement": "% activity", "setting": "[7]", "value": 80, "unit": "%"}, {"measurement": "% activity", "setting": "[8]", "value": 21, "unit": "%"}, {"measurement": "% activity", "setting": "[9]", "value": 80, "unit": "%"}, {"measurement": "% activity", "setting": "[10]", "value": 76, "unit": "%"}, {"measurement": "% activity", "setting": "[11]", "value": 79, "unit": "%"}, {"measurement": "% activity", "setting": "[12]", "value": 26, "unit": "%"}, {"measurement": "% activity", "setting": "[13]", "value": 73, "unit": "%"}, {"measurement": "% activity", "setting": "[14]", "value": 90, "unit": "%"}, {"measurement": "% activity", "setting": "[15]", "value": 70, "unit": "%"}, {"measurement": "% activity", "setting": "[16]", "value": 77, "unit": "%"}, {"measurement": "% activity", "setting": "[17]", "value": 93, "unit": "%"}, {"measurement": "% activity", "setting": "[18]", "value": 54, "unit": "%"}, {"measurement": "% activity", "setting": "[19]", "value": 19, "unit": "%"}, {"measurement": "% activity", "setting": "[20]", "value": 73, "unit": "%"}]}, {"binder": "KAFAKLAARLYRKALARQLGVAA", "note": "[MMI-0400]", "values": [{"measurement": "% activity", "setting": "[1]", "value": 98, "unit": "%"}, {"measurement": "% activity", "setting": "[2]", "value": 3, "unit": "%"}, {"measurement": "% activity", "setting": "[3]", "value": 121, "unit": "%"}, {"measurement": "% activity", "setting": "[4]", "value": 28, "unit": "%"}, {"measurement": "% activity", "setting": "[5]", "value": 68, "unit": "%"}, {"measurement": "% activity", "setting": "[6]", "value": 36, "unit": "%"}, {"measurement": "% activity", "setting": "[7]", "value": 71, "unit": "%"}, {"measurement": "% activity", "setting": "[8]", "value": 16, "unit": "%"}, {"measurement": "% activity", "setting": "[9]", "value": 80, "unit": "%"}, {"measurement": "% activity", "setting": "[10]", "value": 92, "unit": "%"}, {"measurement": "% activity", "setting": "[11]", "value": 73, "unit": "%"}, {"measurement": "% activity", "setting": "[12]", "value": 14, "unit": "%"}, {"measurement": "% activity", "setting": "[13]", "value": 90, "unit": "%"}, {"measurement": "% activity", "setting": "[14]", "value": 101, "unit": "%"}, {"measurement": "% activity", "setting": "[15]", "value": 76, "unit": "%"}, {"measurement": "% activity", "setting": "[16]", "value": 74, "unit": "%"}, {"measurement": "% activity", "setting": "[17]", "value": 93, "unit": "%"}, {"measurement": "% activity", "setting": "[18]", "value": 58, "unit": "%"}, {"measurement": "% activity", "setting": "[19]", "value": 11, "unit": "%"}, {"measurement": "% activity", "setting": "[20]", "value": 74, "unit": "%"}]}]}
